Measurements published in PMC8501605.

Target: T1, pseudokinase mixed lineage kinase domain-like (MLKL) (human (endogenous in post-mortem hippocampus)), Q8NB16
T1 chain: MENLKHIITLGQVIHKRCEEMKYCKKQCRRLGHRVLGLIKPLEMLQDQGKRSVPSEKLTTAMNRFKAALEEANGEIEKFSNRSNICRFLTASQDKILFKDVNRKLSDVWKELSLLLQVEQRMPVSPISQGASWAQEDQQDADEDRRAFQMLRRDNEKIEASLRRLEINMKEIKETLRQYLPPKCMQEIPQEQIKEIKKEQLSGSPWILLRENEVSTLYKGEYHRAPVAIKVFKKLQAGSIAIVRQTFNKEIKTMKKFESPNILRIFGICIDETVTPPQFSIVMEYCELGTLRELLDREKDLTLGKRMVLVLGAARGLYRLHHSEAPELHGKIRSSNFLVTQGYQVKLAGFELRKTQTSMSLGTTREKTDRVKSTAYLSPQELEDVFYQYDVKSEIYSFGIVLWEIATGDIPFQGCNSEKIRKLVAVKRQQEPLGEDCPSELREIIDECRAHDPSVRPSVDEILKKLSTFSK
Test: non-reducing gel and western blot; hippocampal grey matter extracted in native conditions (TBS, 0.1% Triton X-100), run on 7.5% gel in non-reducing conditions, blot for MLKL; AD (n = 14) and control (n = 8) cases
Settings: remark: other sources report otherwise

B1: pseudokinase mixed lineage kinase domain-like (MLKL), Q8NB16 1-471 (natural protein)
chain: T1 chain
- stoichiometry N: 4
